Source: publication PMC2171850

Biological target: Hrp65, endogenous in C. tentans tissue culture cells (C. tentans (endogenous in C. tentans tissue culture cells))
Test: co-IP

percent of the association that is RNase-sensitive: 50%
Substance: Hrp59, endogenous in C. tentans tissue culture cells (natural protein)
